Laboratory results taken from paper PMC11211662, “A novel alcohol dehydrogenase in the hyperthermophilic crenarchaeon Hyperthermus butylicus” (mLife, 2024).

Assays:
Experiment in all cases: purified protein
purified protein [1] = substrate: CC(C)O; details: oxidation, 0.4 mM NADP+, 100 mM EPPS pH 9.0, 80 °C, anaerobic
purified protein [2] = substrate: CCO; details: oxidation, 0.4 mM NADP+, 100 mM EPPS pH 9.0, 80 °C, anaerobic
purified protein [3] = substrate: CC(C)=O; type: biochemical, Hyperthermus butylicus; details: reduction, 0.2 mM NADPH, 100 mM PIPES pH 6.0, 80 °C, anaerobic, pH 6.0
purified protein [4] = substrate: CC=O; type: biochemical, Hyperthermus butylicus; details: reduction, 0.2 mM NADPH, 100 mM PIPES pH 6.0, 80 °C, anaerobic, pH 6.0
purified protein [5] = substrate: CCC=O; type: biochemical, Hyperthermus butylicus; details: reduction, 0.2 mM NADPH, 100 mM PIPES pH 6.0, 80 °C, anaerobic, pH 6.0
purified protein [6] = substrate: CCCC=O; type: biochemical, Hyperthermus butylicus; details: reduction, 0.2 mM NADPH, 100 mM PIPES pH 6.0, 80 °C, anaerobic, pH 6.0
purified protein [7] = substrate: CCCCO; type: biochemical, Hyperthermus butylicus; details: oxidation, 0.4 mM NADP+, 100 mM EPPS pH 9.0, 80 °C, anaerobic, pH 9.0
purified protein [8] = substrate: CCCO; type: biochemical, Hyperthermus butylicus; details: oxidation, 0.4 mM NADP+, 100 mM EPPS pH 9.0, 80 °C, anaerobic, pH 9.0

B1: HbADH2 (Hyperthermus butylicus DSM 5456) (protein)
chain: MLRRLQSSLRDYVRKYIVRLNCNAGGTTCKPSSTECQRFLAEPNLPQALLLAGYRLLDCTCSSGGGVSIELVGTSGDTIPARLCLDCGSIFPALTLKAQLPLSTSIPPYRGPIQEAMLKTVETIAQFCAHRKGLPLLLDTVLAEPARMCKVKLGCRPIHISSFEKADLGTVSPRIKLPTILSWITLRLRKSIEIEAPWLCVESNNGALQLVCLSETCRFEVTHCGSVRLIHGKAIALPSSTRCSPALLHLVYLYGTLYKSIDDVNVKPCIWSMTGLAILGAWYSTGENGESMMLLVWNPLKKSKLHEIVFERHRIVEAKLTSPATWLEEQLIPQYNRLRIPLPPHGARLVYVRLRKLPRLLSKNANG
notes: native protein purified anaerobically from H. butylicus cell-free extract (DEAE-Sepharose, hydroxyapatite, phenyl-Sepharose); untagged; 367 residues deduced, 40,694 Da calculated; gene assigned by mass spectrometry of the gel band, not by recombinant expression
Q: What does the source list for B1?
A: Km (purified protein [1]): 3740 ± 460 µM; kcat (purified protein [1]): 3.47 s⁻¹; kcat/Km (purified protein [1]): 928 M⁻¹ s⁻¹; Km (purified protein [2]): 4360 ± 420 µM; kcat (purified protein [2]): 4 s⁻¹; kcat/Km (purified protein [2]): 915 M⁻¹ s⁻¹; Km (purified protein [3]): 680 ± 40 µM; kcat (purified protein [3]): 3.84 ± 0.06 s⁻¹; kcat/Km (purified protein [3]): 8070 ± 1520 M⁻¹ s⁻¹; Km (purified protein [4]): 1270 ± 180 µM; kcat (purified protein [4]): 7 ± 0.31 s⁻¹; kcat/Km (purified protein [4]): 5510 ± 1720 M⁻¹ s⁻¹; Km (purified protein [5]): 1550 ± 200 µM; kcat (purified protein [5]): 1.79 ± 0.07 s⁻¹; kcat/Km (purified protein [5]): 1160 ± 338 M⁻¹ s⁻¹; Km (purified protein [6]): 590 ± 70 µM; kcat (purified protein [6]): 8 ± 0.22 s⁻¹; kcat/Km (purified protein [6]): 13600 ± 3140 M⁻¹ s⁻¹; Km (purified protein [7]): 2440 ± 300 µM; kcat (purified protein [7]): 6.84 ± 0.24 s⁻¹; kcat/Km (purified protein [7]): 2800 ± 814 M⁻¹ s⁻¹; Km (purified protein [8]): 4690 ± 410 µM; kcat (purified protein [8]): 4.4 ± 0.12 s⁻¹; kcat/Km (purified protein [8]): 938 ± 293 M⁻¹ s⁻¹
